Reference: PMC5409509, “The mismatch repair and meiotic recombination endonuclease Mlh1-Mlh3 is activated by polymer formation and can cleave DNA substrates in trans”

T1: Mlh1-Mlh3 (Saccharomyces cerevisiae, UniProt P38920;Q12083 1-769;1-715)
T1 sequence 1: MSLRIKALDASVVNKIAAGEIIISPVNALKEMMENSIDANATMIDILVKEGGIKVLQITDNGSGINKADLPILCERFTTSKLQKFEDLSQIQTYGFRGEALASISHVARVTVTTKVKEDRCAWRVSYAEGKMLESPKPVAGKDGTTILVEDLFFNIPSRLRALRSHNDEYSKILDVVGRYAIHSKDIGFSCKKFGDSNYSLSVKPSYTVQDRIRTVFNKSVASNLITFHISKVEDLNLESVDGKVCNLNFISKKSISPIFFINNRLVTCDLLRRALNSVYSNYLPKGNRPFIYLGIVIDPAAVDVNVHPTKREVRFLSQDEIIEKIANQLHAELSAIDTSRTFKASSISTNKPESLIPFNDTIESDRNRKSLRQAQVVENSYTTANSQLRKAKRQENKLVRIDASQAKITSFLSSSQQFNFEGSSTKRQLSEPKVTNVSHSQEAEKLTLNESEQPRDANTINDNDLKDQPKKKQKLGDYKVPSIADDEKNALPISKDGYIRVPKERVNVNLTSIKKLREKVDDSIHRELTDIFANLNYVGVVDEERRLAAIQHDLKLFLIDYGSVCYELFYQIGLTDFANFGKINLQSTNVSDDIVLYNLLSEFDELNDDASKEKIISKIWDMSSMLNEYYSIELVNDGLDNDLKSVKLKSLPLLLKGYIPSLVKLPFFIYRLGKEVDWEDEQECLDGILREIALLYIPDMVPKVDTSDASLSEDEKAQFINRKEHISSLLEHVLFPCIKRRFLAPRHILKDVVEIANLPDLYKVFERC
T1 sequence 2: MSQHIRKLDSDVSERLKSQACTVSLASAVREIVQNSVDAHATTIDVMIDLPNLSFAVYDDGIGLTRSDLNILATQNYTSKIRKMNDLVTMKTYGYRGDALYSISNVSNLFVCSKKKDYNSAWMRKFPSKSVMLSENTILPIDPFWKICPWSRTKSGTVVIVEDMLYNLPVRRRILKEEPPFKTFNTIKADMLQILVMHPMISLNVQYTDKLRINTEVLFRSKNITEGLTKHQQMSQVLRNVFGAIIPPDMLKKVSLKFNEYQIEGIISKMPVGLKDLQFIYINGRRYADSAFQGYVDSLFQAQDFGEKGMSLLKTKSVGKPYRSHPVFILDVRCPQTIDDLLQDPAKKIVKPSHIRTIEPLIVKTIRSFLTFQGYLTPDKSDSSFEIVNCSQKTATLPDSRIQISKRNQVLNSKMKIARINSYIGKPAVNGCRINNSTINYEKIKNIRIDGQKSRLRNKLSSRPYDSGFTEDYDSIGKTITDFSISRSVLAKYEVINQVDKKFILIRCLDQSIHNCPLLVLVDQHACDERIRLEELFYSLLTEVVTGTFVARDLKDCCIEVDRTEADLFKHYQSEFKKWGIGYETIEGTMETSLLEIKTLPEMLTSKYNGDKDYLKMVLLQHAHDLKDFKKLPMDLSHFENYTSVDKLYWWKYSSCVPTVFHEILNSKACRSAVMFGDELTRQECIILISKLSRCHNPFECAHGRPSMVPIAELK

B1: +8 loop oligonucleotide (AO3142/AO3143) (dsDNA)
DNA 1: GGGTCAACGTGGGCAAAGATGTCCTAGCAAGTCAGAATTCGGTAGCGTG
DNA 2: CACGCTACCGAATTCTGACTTGCTAGGTGTGTGTGACATCTTTGCCCACGTTGACCC
B2: Holliday junction X26 (structured_DNA)
DNA 1: GCGCTACCAGTGATCACCAATGGATTGCTAGGACATCTTTGCCCACCTGCAGGTTCACCC
DNA 2: GGGTGAACCTGCAGGTGGGCAAAGATGTCCTAGCAATCCATTGTCTATGACGTCAAGCTC
DNA 3: GAGCTTGACGTCATAGACAATGGATTGCTAGGACATCTTTGCCGTCTTGTCAATATCGGC
DNA 4: GCCGATATTGACAAGACGGCAAAGATGTCCTAGCAATCCATTGGTGATCACTGGTAGCGC

Legend:
[1] = molecular target: T1, Mlh1-Mlh3; assay: competition; very strong competitor of plasmid nicking, 0-2000 nM oligo, 1 mM Mg2+; Filter binding: 20 mM Tris-HCl pH 7.5, 0.01 mM EDTA, 2 mM MgCl2, 40 ug/mL BSA, 0.1 mM DTT, 15 uM nucleotide DNA, 10 min at 30 C (20 or 150 mM KCl in Fig 4B; KCl not stated for Fig 4A); conditions: protein: recombinant; copies: 1;1; blunt
[2] = molecular target: T1, Mlh1-Mlh3; assay: competition; very strong competitor of plasmid nicking, 0-2000 nM, 1 mM Mg2+; Filter binding: 20 mM Tris-HCl pH 7.5, 0.01 mM EDTA, 2 mM MgCl2, 40 ug/mL BSA, 0.1 mM DTT, 15 uM nucleotide DNA, 10 min at 30 C (20 or 150 mM KCl in Fig 4B; KCl not stated for Fig 4A); conditions: protein: recombinant; copies: 1;1; 4-way junction with 26 bp mobile homologous core

| Binder | binding result [1] | binding result [2] |
| --- | --- | --- |
| B1 | binds | – |
| B2 | – | binds |
